Results: article PMC6471826, “Cold-Adapted Glutathione S-Transferases from Antarctic Psychrophilic Bacterium Halomonas sp. ANT108: Heterologous Expression, Characterization, and Oxidative Resistance” (Marine Drugs, 2019)

Tested on: O=[N+]([O-])c1ccc(Cl)c([N+](=O)[O-])c1
Experiment: purified protein
Conditions: co-substrate GSH, CDNB 0.5-4.5 mM, 25 °C

rHsGST (Halomonas sp.)
Km: 2860 µM
kcat/Km: 18800 M⁻¹ s⁻¹
